Measurements taken from PMC4622713.

Key:
[1] = molecular target: CT-P13 (Remsima®, infliximab biosimilar); experiment: ELISA
[2] = molecular target: Remicade® (infliximab, reference medicinal product); experiment: ELISA
FcRn = FcRn (UniProt P55899); experiment: SPR
Chain of UniProt P55899 (P55899 whole entry, looked up, tested part not stated): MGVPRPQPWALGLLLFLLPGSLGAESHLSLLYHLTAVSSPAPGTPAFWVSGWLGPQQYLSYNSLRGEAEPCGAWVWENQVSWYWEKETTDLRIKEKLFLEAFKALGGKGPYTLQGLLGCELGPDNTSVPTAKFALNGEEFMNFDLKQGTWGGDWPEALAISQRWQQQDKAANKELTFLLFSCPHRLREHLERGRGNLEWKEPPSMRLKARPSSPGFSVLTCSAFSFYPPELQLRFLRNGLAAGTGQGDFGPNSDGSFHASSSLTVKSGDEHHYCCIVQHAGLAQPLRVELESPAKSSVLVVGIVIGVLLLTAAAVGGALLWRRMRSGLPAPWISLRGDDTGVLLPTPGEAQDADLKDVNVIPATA

Row | Substance | relative binding affinity, average (%) [1] | relative binding affinity, average (%) [2] | relative binding affinity, average (%) (FcRn)
1 | C1q (complex) | 100% | 98% | –
2 | Remicade® (infliximab, reference medicinal product) (antibody) | – | – | 97%
3 | CT-P13 (Remsima®, infliximab biosimilar) (antibody) | – | – | 101%
